Results from patent US20160168210A1, “DERIVATIVES OF COLLAGEN-BINDING HAIRPIN PEPTIDES” (NATIONAL RESEARCH COUNCIL OF CANADA, priority 2012, published 2016).
Entries after “also recorded” stand apart in the source; their conditions may differ. Where no end group is shown, it is not given here.

Key:
[1] = as reported previously (Blanco 1994; Cochran 2001b); cited from earlier work
rat-tail collagen type I [2] = biological target: T1, rat-tail collagen type I (Rattus norvegicus, UniProt P02454+P02466); assay: Collagen binding/responsiveness of peptides by proton NMR and H-15N HSQC spectroscopy; parameters: rat-tail collagen type I (at 4 mg/ml in 0.02 N acetic acid); purchased BD Bioscience; host or cells: rat tail (tissue-derived); conditions: for response to / binding of collagen (NMR spectral perturbations): peptide free in solution vs in the presence of collagen; for NMR perturbations after collagen gelation (polymerization); reversibility of collagen binding: before vs after collagen gelation
Experimental: Rat collagen hydrogels were prepared using rat-tail collagen type I (at 4 mg/ml in 0.02 N acetic acid) from BD Bioscience. A volume of 200 μL of the concentrated collagen solution was mixed with an equal volume of a buffer solution that was 400 mM in Tris-HCl and 400 mM in NaCl with a pH of 7.6 and with 50 μL of deuterated water (D2O). The sample mixture was transferred to an NMR tube followed by gentle mixing under agitation using a Thermolyne™ Max Mix-II apparatus. The NMR tube containing the collagen solution was placed within the RF probe housed in a 500 MHz super-conducting magnet (Bruker Avance-500 NMR spectrometer). The probe and sample bulk temperature was kept at 277 K for 3 hours and then elevated to 310 K at a rate of 1 degree/10 min to enable fibril alignment during a slow process of collagen gelation under the influence of the magnetic field (Ma 2008). The degree of fibril alignment of the collagen hydrogels was determined by use of deuterium NMR spectroscopy of the added D2O as described (Ma 2008). […]
Randomly-deposited collagen (hydrogel) matrix was prepared following the same procedure as above for partially aligned hydrogels, except that the RF probe and the NMR tube (or test tubes) containing the collagen solution were placed outside the magnetic field. Peptides containing collagen-binding hairpins were introduced into the hydrogels in two ways, the first with the collagen stock solution diluted (50:50 in volume ratio) by the buffer of 400 mM in Tris-HCl and 400 mM in NaCl at pH 7.6 containing the peptides of interest (i.e. for FIGS. 1A & 1D), which gelates in the presence of the added peptide. Alternatively, peptides in an appropriate buffer were introduced to the top of the hydrogel matrix (i.e. for FIGS. 1B & 1C) preformed in the NMR tube (or test tube) following the procedures described above. The behavior of the peptides in the hydrogels was followed by use of NMR H-^15N HSQC spectra for ^15N-labelled peptides (FIG. 1) and/or by use of one-dimensional proton NMR spectroscopy (FIG. 2).
(§1) Deuterium NMR spectroscopy studies of collagen responsiveness (and/or binding) for each peptide were carried out using a volume of (400-X) μL of a peptide dissolved in pure water mixed with 50 μL of a 10×PBS (phosphate-buffered saline) supplemented by sodium phosphate to a final concentration of 50 mM, with 50 μL of deuterated water (D2O) to form the reference sample (where X=0), or the peptide-collagen complex with X μL of rat-tail collagen type I (at 3.6 to 4 mg/ml in 0.02 N acetic acid from BD Bioscience) adjusted to achieve the desired final concentration of collagen. The pH value of the reference peptide samples was adjusted to match the pH of the final peptide-collagen complex in order to facilitate NMR spectral comparison. The peptide-collagen solutions were also subjected to gelation under magnetic field guidance followed by the measurement of fibril alignment (Ma 2008) as a semi-quantitative indication of peptide-collagen binding. Deuterium coupling constants measuring the degree of collagen fibril alignment were reduced by more than 1.0 Hz for MH2-wZIP4, by less than 0.5 Hz for MH2-wZIP6 and MH2-wZIP5, which parallel those observed for trpzip4, trpzip6, trpzip5 and the gb1 peptide (see Example 4). As a comparison, a solution of rat collagen at a concentration of 1.8 mg/ml in 200 mM Tris-Cl/200 mM NaCl at pH 7.6 formed a partially-aligned hydrogel with a deuterium coupling constant (Ma, 2008) of 2.5 Hz, while a solution of rat collagen at a concentration of 3 mg/ml in PBS (137 mM NaCl/2.68 mM KCl/10.1 mM Na2HPO4/1.76 mM KH2PO4) supplemented with Na2HPO4 to achieve a final concentration of 50 mM at pH 7.4 formed a partially-aligned hydrogel with a deuterium coupling constant of 4.8 Hz. A solution of human collagen at a concentration of 2.23 mg/ml in PBS supplemented with Na2HPO4 with a final concentration of 50 mM at pH 7.4 formed a partially-aligned hydrogel with a deuterium coupling constant of 1.3 Hz.

rat-tail collagen type I [3] = biological target: T1, rat-tail collagen type I; assay: Collagen fibril alignment of hydrogels formed from peptide-collagen solutions, deuterium NMR (deuterium coupling constant); type: binding; parameters: rat-tail collagen type I (at 4 mg/ml in 0.02 N acetic acid); purchased BD Bioscience; host or cells: rat tail (tissue-derived)
Experimental: Rat collagen hydrogels were prepared using rat-tail collagen type I (at 4 mg/ml in 0.02 N acetic acid) from BD Bioscience. A volume of 200 μL of the concentrated collagen solution was mixed with an equal volume of a buffer solution that was 400 mM in Tris-HCl and 400 mM in NaCl with a pH of 7.6 and with 50 μL of deuterated water (D2O). The sample mixture was transferred to an NMR tube followed by gentle mixing under agitation using a Thermolyne™ Max Mix-II apparatus. The NMR tube containing the collagen solution was placed within the RF probe housed in a 500 MHz super-conducting magnet (Bruker Avance-500 NMR spectrometer). The probe and sample bulk temperature was kept at 277 K for 3 hours and then elevated to 310 K at a rate of 1 degree/10 min to enable fibril alignment during a slow process of collagen gelation under the influence of the magnetic field (Ma 2008). The degree of fibril alignment of the collagen hydrogels was determined by use of deuterium NMR spectroscopy of the added D2O as described (Ma 2008).
as §1, with “A solution of human collagen at a concentration of 2.23 mg/ml in PBS supplemented with Na2HPO4 with a final concentration of 50 mM at pH 7.4 formed a partially-aligned hydrogel with a deuterium coupling constant of 1.3 Hz.” left out

rat-tail collagen type I [4] = biological target: T2, rat-tail collagen type I (rat, UniProt P02454 152-1207; P02466 86-1125); assay: NMR spectroscopy (Table 4 footnote)
T2 construct: also called type-I collagen; unpolymerized collagen

rat-tail collagen type I [5] = biological target: T2, rat-tail collagen type I; assay: cell-based or functional assay

T2 sequence (P02454 152-1207 limits assumed, chain 1 of 2): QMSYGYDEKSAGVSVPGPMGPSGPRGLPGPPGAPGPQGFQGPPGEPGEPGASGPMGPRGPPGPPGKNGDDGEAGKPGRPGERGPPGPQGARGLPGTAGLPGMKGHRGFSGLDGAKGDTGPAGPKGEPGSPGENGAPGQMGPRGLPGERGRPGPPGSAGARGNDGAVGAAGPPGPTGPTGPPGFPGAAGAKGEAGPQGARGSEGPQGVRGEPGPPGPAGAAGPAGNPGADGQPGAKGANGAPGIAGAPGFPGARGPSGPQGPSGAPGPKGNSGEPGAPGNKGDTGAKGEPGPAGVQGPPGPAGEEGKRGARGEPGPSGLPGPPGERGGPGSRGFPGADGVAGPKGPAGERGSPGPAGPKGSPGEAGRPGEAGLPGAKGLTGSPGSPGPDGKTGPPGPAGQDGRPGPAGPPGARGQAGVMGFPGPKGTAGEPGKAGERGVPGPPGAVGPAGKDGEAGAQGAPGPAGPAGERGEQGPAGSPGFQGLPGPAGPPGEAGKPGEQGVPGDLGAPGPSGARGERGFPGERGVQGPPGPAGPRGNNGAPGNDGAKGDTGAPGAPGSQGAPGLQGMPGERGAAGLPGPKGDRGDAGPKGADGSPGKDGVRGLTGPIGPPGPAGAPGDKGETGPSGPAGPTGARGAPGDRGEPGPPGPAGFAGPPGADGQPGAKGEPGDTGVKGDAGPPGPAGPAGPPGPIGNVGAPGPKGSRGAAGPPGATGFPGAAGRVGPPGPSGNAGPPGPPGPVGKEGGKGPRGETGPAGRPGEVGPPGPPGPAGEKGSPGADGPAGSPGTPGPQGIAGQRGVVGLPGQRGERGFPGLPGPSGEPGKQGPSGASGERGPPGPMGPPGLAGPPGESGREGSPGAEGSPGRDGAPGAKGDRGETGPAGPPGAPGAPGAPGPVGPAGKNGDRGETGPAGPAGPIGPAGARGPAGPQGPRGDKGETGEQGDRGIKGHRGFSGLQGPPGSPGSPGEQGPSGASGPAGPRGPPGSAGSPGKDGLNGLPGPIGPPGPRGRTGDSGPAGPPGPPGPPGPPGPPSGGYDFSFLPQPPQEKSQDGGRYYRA
T2 sequence (P02466 86-1125 limits assumed, chain 2 of 2): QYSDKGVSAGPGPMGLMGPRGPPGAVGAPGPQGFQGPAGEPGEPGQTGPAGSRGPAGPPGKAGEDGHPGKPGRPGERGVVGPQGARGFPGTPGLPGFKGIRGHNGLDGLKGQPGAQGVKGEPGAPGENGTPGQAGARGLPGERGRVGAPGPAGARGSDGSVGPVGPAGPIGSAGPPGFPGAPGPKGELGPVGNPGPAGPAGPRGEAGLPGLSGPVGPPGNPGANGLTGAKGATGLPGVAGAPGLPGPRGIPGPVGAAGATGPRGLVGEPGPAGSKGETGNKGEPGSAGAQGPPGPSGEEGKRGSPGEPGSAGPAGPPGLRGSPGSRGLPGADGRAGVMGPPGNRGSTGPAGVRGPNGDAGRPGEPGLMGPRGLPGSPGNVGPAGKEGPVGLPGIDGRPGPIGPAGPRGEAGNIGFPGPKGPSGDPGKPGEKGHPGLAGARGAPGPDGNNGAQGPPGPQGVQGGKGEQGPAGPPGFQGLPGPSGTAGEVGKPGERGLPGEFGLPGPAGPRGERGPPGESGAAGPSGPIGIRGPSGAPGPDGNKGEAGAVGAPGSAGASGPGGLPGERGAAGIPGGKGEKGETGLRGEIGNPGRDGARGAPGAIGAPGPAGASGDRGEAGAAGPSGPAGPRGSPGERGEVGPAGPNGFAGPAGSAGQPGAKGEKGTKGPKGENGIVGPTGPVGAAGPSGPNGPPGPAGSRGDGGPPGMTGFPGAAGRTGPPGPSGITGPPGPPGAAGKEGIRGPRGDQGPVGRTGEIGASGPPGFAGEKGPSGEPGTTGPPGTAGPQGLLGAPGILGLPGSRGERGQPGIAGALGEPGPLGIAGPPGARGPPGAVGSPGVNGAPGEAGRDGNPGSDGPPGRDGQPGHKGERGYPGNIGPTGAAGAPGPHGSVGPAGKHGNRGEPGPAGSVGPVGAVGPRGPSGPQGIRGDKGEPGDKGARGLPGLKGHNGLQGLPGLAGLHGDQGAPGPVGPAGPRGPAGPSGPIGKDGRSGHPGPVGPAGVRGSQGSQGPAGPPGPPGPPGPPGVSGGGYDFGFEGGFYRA
T1 sequence (P02454 152-1207 limits assumed): as the sequence (P02454 152-1207 limits assumed, chain 1 of 2) above
T1 sequence (P02466 86-1125 limits assumed): as the sequence (P02466 86-1125 limits assumed, chain 2 of 2) above

GEWTYDDATKTFTVTE (gb1 - does not bind collagen) [reference compound]
Tm [1]: about 7 °C
response to / binding of collagen (NMR spectral perturbations) (rat-tail collagen type I [2]): no response to collagen; also recorded: little binding capacity; also recorded: does not bind collagen
effect on collagen gelation and degree of collagen alignment (rat-tail collagen type I [3]): remained similar with or without the peptide

GEWTWDDATKTWTWTE (GEWTWDDATKTWTWTE-NH2) [trpzip4, reference compound]
Tm [1]: about 70 °C
response to / binding of collagen (NMR spectral perturbations) (rat-tail collagen type I [2]): responded to collagen; also recorded: most pronounced changes in response to the presence of collagen; also recorded: dramatically altered by collagen
effect on collagen gelation and degree of collagen alignment (rat-tail collagen type I [3]): significantly reduced degree of collagen alignment

GEWTYDDATKTFTWTE (GEWTYDDATKTFTWTE-NH2) [trpzip5, reference compound]
Tm [1]: about 43 °C
NMR perturbations after collagen gelation (polymerization); reversibility of collagen binding (rat-tail collagen type I [2]): revert toward those of the free peptides after collagen polymerization; also recorded: reverts to a greater extent as compared to trpzip6
response to / binding of collagen (NMR spectral perturbations) (rat-tail collagen type I [2]): responded to collagen; also recorded: respond to the presence of collagen

GEWTWDDATKTWTVTE (GEWTWDDATKTWTVTE-NH2) [trpzip6, reference compound]
Tm [1]: about 45 °C
NMR perturbations after collagen gelation (polymerization); reversibility of collagen binding (rat-tail collagen type I [2]): revert toward those of the free peptides after collagen polymerization
response to / binding of collagen (NMR spectral perturbations) (rat-tail collagen type I [2]): responded to collagen; also recorded: respond to the presence of collagen

IRFDTGEWTWDDATKTWTWTEGDFEEIPEEYLQ (MH2-wZIP4 - molecule of Formula (I))
NMR perturbations after collagen gelation (polymerization); reversibility of collagen binding (rat-tail collagen type I [2]): no dramatic impact on resonance perturbations
NMR perturbations / release after collagen degradation by a collagenase (rat-tail collagen type I [2]; collagenase treatment): releasable by the collagenase; also recorded: highly sensitive to the treatment of a collagenase
entrapment in collagen hydrogel (rat-tail collagen type I [2]; diffused into pre-aligned collagen hydrogels): greatly-reduced entrapment
response to / binding of collagen (NMR spectral perturbations) (rat-tail collagen type I [2]): most pronounced proton NMR spectral changes; also recorded: highest capacity of binding unpolymerized soluble collagen
effect on collagen gelation and degree of collagen alignment (rat-tail collagen type I [3]): most pronounced interference with hydrogel formation by collagen
reduction of deuterium coupling constant measuring the degree of collagen fibril alignment (rat-tail collagen type I [3]; gelation under magnetic field guidance): more than 1.0 Hz

SVTWENGKWTVK [W4W9-trpzip2]
binding result (rat-tail collagen type I [4]): no binding

SYTWENGKWTYK [YWWY-trpzip2]
binding result (rat-tail collagen type I [4]): no binding

IRFTDGEWTWDDATKTWTWTEGDFEEIPEEYLQ [MH2-wZIP4]
reduction of the deuterium coupling constant measuring the degree of collagen fibril alignment (rat-tail collagen type I [5]): > 1 Hz

GEWTYDDATKTFTWTE [MH2-wZIP5]
reduction of the deuterium coupling constant measuring the degree of collagen fibril alignment (rat-tail collagen type I [5]): < 0.5 Hz

GEWTWDDATKTWTVTE [MH2-wZIP6]
reduction of the deuterium coupling constant measuring the degree of collagen fibril alignment (rat-tail collagen type I [5]): < 0.5 Hz

SYTWEGNKWTYK [Y2Y11-trpzip1]
binding result (rat-tail collagen type I [4]): no binding
